T1: gaga (GAGA Cys2-His2 zinc finger peptide) (UniProt Q08605 337-367)
T1 chain: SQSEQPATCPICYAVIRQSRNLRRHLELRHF

B1: cg·GAG (dsDNA)
DNA 1: CGCGTCATCAGCGAGAGCGC
DNA 2: GCGCTCTCGCTGATGACGCG
B2: AT·GAG (= cat·AT·GAG) (dsDNA)
DNA 1: CGCGTCATAATTGAGAGCGC
DNA 2: GCGCTCTCAATTATGACGCG

How the values were obtained:
Hk-gaga = Hk-gaga (UniProt Q08605); assay: fluorescence anisotropy; settings: Zn2+, EMSA: 18 mM Tris-HCl pH 7.5, 90 mM KCl, 1.8 mM MgCl2, 0.2 mM TCEP, 9% glycerol, 0.11 mg/mL BSA, 2.2% NP-40, 0.02 mM ZnCl2, 20 C, 75 nM DNA, FA: 20 mM Tris-HCl …
gaga-Hk = gaga-Hk (UniProt Q08605); assay: fluorescence anisotropy; settings: Zn2+, EMSA: 18 mM Tris-HCl pH 7.5, 90 mM KCl, 1.8 mM MgCl2, 0.2 mM TCEP, 9% glycerol, 0.11 mg/mL BSA, 2.2% NP-40, 0.02 mM ZnCl2, 20 C, 75 nM DNA, FA: 20 mM Tris-HCl …
gaga-Hk-gaga = gaga-Hk-gaga (UniProt Q08605); assay: fluorescence anisotropy; settings: no calf thymus DNA; Zn2+; EMSA: 18 mM Tris-HCl pH 7.5, 90 mM KCl, 1.8 mM MgCl2, 0.2 mM TCEP, 9% glycerol, 0.11 mg/mL BSA, 2.2% NP-40, 0.02 mM ZnCl2, 20 C, 75 nM DNA; FA: 20 mM Tris-HCl …
[1] = target: T1, gaga (GAGA Cys2-His2 zinc finger …); assay: EMSA; Zn2+; 1000 nM; EMSA: 18 mM Tris-HCl pH 7.5, 90 mM KCl, 1.8 mM MgCl2, 0.2 mM TCEP, 9% glycerol, 0.11 mg/mL BSA, 2.2% NP-40, 0.02 mM ZnCl2, 20 C, 75 nM DNA; FA: 20 mM Tris-HCl pH 7.5, 100 mM NaCl, 0.02 mM ZnCl2, 20 C, 25 nM DNA; nanopore: 100 mM NaCl, 0.02 mM ZnCl2, 20 mM Tris-HCl pH 7.5, 22 C

Sequence of gaga-Hk (Q08605 other isoform, or with tags, fused parts or gaps): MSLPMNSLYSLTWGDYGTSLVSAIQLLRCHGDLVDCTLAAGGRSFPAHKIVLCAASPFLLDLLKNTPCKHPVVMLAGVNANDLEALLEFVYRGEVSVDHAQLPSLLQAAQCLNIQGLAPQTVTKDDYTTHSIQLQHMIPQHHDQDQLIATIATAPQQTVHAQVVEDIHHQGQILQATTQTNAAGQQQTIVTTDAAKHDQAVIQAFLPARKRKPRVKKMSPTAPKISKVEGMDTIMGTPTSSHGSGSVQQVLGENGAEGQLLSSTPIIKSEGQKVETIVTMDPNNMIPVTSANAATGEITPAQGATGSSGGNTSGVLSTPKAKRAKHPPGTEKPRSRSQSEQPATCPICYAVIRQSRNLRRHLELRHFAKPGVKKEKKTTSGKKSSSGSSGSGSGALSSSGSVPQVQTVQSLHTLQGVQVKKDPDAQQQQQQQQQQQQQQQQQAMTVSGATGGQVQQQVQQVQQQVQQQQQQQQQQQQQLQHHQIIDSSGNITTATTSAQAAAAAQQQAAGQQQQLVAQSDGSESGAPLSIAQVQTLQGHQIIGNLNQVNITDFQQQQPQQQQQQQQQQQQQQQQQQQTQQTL
Sequence of Hk-gaga (Q08605 other isoform, or with tags, fused parts or gaps): as above
Sequence of gaga-Hk-gaga (Q08605 other isoform, or with tags, fused parts or gaps): as above

Row | Molecule | Kd (gaga-Hk; no calf thymus DNA) | binding result [1] | also measured
1 | CGCGTCATAATTGAGAGCGC (double strand) [TMR-AT·GAG] | 41 nM |  | Kd (Hk-gaga; 50 uM bp calf thymus DNA): 92 nM; Kd (Hk-gaga; no calf thymus DNA): 44 nM; Kd (gaga-Hk; 50 uM bp calf thymus DNA): 58 nM
2 | CGCGTCATCAGCGAGAGCGC (double strand) [TMR-cg·GAG] | 100 nM |  | 
3 | GAGCTCTCAATTGAGAGCGCG (double strand) [TMR-CTC·AT·GAG] |  |  | Kd (gaga-Hk-gaga): 35 nM
4 | B1 |  | no binding | 
5 | B2 |  | no binding | 
